Assay [1] concerns CLP sepsis. Kind of assay: Cecal ligation and puncture (CLP) sepsis model: survival. The class given is in vivo, rat. The source says: (§1) A rat model of sepsis was induced through cecal ligation and puncture (CLP) as described previously (Wichterman K A, Baue A E, Chaudry I H: Sepsis and septic shock-a review of laboratory models and a proposal. J Surg Res 29:189-201, 1980). An incision was made along the midline of the abdomen on an anesthetized animal. The cecum was exteriorized, ligated and punctured with a stainless steel needle. An appropriate amount of fecal matter was then extruded. The gauge of the needle, number of punctures and amount of fecal matter extruded are all factors in determining the severity of sepsis and mortality. […] The incision was sutured and appropriate post-operative care was administered. Sham-operated animals were subjected to similar laparotomy and intestinal manipulation, however, the cecum was neither ligated nor punctured. Immediately or 6 hours after the CLP procedure, animals were given intravenous injection of vehicle or a Bst2 decoy.
Mortality of animals was monitored for up to 14 days after the procedure. […] 3, 10, and 30 mg/kg doses were administered immediately following the CLP procedure and daily survival monitored over the course of 14 days.

Another assay deals with U937 cells. As to the kind of experiment: Homotypic aggregation of U937 cells induced by PMA and LPS. The class given is cell-based, human. Conditions: decoy medium from CHO-S cells, in comparison with control medium. The protocol: Expression levels of Bst2 protein were examined during aggregation of human U937 monocytic cells. […] To determine the degree of cell aggregation, the size of formed cell aggregates was measured as pixel intensity, using Adobe's Photoshop software, version 7.0. The standard deviation values shown in drawings were calculated from mean values of six randomly selected aggregates. Thereafter, all used cells were recovered, and total RNA was isolated and subjected to RT-PCR using a set of primers of SEQ ID NOS:3 and 4 to assess Bst2 expression levels.
1×10^6 U937 cells, which had been cultured under the aforementioned conditions, were seeded onto a 96-well cell culture plate (NUNC) and treated with PMA (2 ng/ml, Calbiochem) and LPS (10 μg/ml, Calbiochem) for 24 hrs. The cells were then observed for the degree of homotypic cell aggregation under a phase-contrast inverted microscope (Olympus 1X71, state, USA).
U937 cells were pretreated with PMA and LPS to induce cell aggregation, and were treated with serial dilutions of medium (decoy medium) containing a Bst2 decoy transiently expressed in CHO-S cells.

The subject of assay [2] is CLP sepsis. Kind of assay: CLP sepsis model: tissue and organ damage. Format: in vivo, rat.
From the text: as §1
Blood enzyme levels were measured at 6, 12, and 24 hours post-CLP (FIG. 49A-49D). Organ damage, as indicated by increased levels of alanine aminotransferase (ALT), aspartate aminotransferase (AST), blood urea nitrogen (BUN) and creatinine, was evident in all animals that underwent the CLP procedure.

The test system of the next assay is mouse model of asthma. As to the kind of experiment: Ovalbumin-induced mouse model of asthma: infiltrating cells in bronchoalveolar lavage. The class given is in vivo. Conditions: ovalbumin-sensitized mice. On the procedure: A mouse model of asthma was prepared by sensitizing mice (C57B6, 8 weeks) with ovalbumin. In detail, mice were initially sensitized for five continuous days by intranasal injection of ovalbumin. After three weeks, mice were intranasally sensitized again with ovalbumin for five continuous days. One week after the secondary sensitization, mice were challenged intranasally with ovalbumin three times every 24 hrs to induce asthma. Herein, a Bst2 decoy was intravenously injected into mice 30 min before sensitization with ovalbumin, and was injected into mice 30 min before the first sensitization and the last injection of ovalbumin. Three days after the last injection, serum samples, lung tissues, and the like were collected from mice.
A mouse model of asthma was prepared as described in Example 8-1.
The effect of Bst2 decoy-Fc fusions on immune cell infiltration was assessed as described in Example 8-2. When ovalbumin-sensitized mice were treated with a Bst2 decoy, the total number of infiltrating cells was decreased and, especially, the number of neutrophils, eosinophils and lymphocytes except for macrophage was decreased in bronchoalveolar lavage (BAL) (FIG. 27).
A mouse model of asthma was prepared as described in Example 8-1. The effect of anti-Bst2/Damp1 antibodies on immune cell infiltration was assessed as described in Example 8-2. […]

The test system of a further assay is Jurkat cells. Kind of assay: Homotypic aggregation of Jurkat T cells activated with anti-CD3. Format: cell-based, human. Particulars: pretreatment 30 min before activation with anti-CD3. The protocol:
When Jurkat cells (5×10^5 cells/ml) were incubated with anti-CD3 monoclonal antibody (OKT3: 10 μg/ml, BD Pharmingen) at 4° C. for 20 min and then with anti-mouse immunoglobulin polyclonal antibody (25 μg/ml, Zymed) 37° C. for 1 hr, cell aggregation occurred, and the cells were activated and induced to produce interleukin-2 (IL-2) (FIGS. 10 and 11). According to the same method, when green fluorescent protein (GFP) overexpression was induced, there was no effect. In contrast, when Jurkat cells were transfected with a Bst2-overexpressing vector and were induced to activate, homotypic cell aggregation increased (FIG. 10, panel A). IL-2 mRNA levels upon T cell activation were measured by real-time RT-PCR (Example 3). IL-2 mRNA expression was elevated by about two times under Bst2 overexpression in comparison with GFP overexpression (FIG. 10, panel B).
Jurkat cells were pretreated with a Bst2 decoy 30 min before activation, were activated using anti-CD3 monoclonal antibody, and were evaluated for inhibition of cell aggregation. The cells were treated with a relative amount of serial dilutions of an animal cell culture fluid containing a Bst2 decoy. The size of aggregates was represented as a ratio to the size of aggregates of a non-treatment group.

Assay [3] concerns TNCB-induced contact hypersensitivity. As to the kind of experiment: TNCB-induced contact hypersensitivity in mice. Format: in vivo, Balb/c mice. The protocol:
To evaluate efficacy of Bst2 decoy on allergic dermatitis, contact hypersensitivity was induced by repeated application of 2,4,6-trinitro-1-chlorobenzene (TNCB) in Balb/c mice. The mice were initially sensitized with 0.2 ml of 1% TNCB solution on day 0, Subsequent challenges of 0.2 ml of 0.2% TNCB solution was applied to the shaved backs of the animals 2-3 times per week from week 2 to week 6. By the end of week 6, all animal developed lesions on the dorsal skin treated with TNCB solution (FIGS. 40A-40C).
During week 7, 5 daily doses of Bst2 decoy were administered at 10 mg/kg to the animals by intravenous injection, and the animals were sacrificed for observation at the end of week 7.
H&E staining was performed on exposed skin sections.

B1: Bst2 decoy: soluble Bst2 protein fragment having the amino acid sequence of SEQ ID NO:1; extracellular region of human Bst2, six-histidine tag (protein)
chain: NSEACRDGLRAVMECRNVTHLLQQELTEAQKGFQDVEAQAATCNHTVMALMASLDAEKAQGQKKVEELEGEITTLNHKLQDASAEVERLRRENQVLSVRIADKKYYPSSQDHHHHHH
As to B1, the “14 day survival rate” value with CLP sepsis [1] (3 mg/kg intravenous immediately following CLP) stood at 37.5%; with CLP sepsis [1] (10 mg/kg intravenous immediately following CLP), 80%; in the assay with CLP sepsis [1] (30 mg/kg intravenous immediately following CLP), 75%. In the assay on CLP sepsis [1] (administration 6 hours post-CLP), the 14-day survival rate came out at 70%. Further, the “decrease of U937 cell aggregation induced by PMA and LPS” value in the assay on U937 cells was 50%. The “blood levels of ALT, AST, BUN and creatinine” value in the assay on CLP sepsis [2] (6, 12 and 24 hours post-CLP) is listed as “near-normal level”. Also, the “H&E staining of liver, kidney and lung sections” value in the assay on CLP sepsis [2] (24 post-CLP) is on record as “protective effects against organ damage”. The “number of infiltrating cells in bronchoalveolar lavage (total, neutrophils, eosinophils, lymphocytes)” value in the assay with mouse model of asthma is recorded as “remarkably decreased”. The “aggregation of Jurkat cells” value in the assay with Jurkat cells was “significant decrease”. The “recovery from TNCB-induced skin lesions” value in assay [3] (10 mg/kg intravenous, 5 daily doses during week 7, vs vehicle alone) is on record as “recovered much quicker”. Also, the “H&E staining of exposed skin sections” value in assay [3] (TNCB-treated mice) was “near-normal morphology with little signs of inflammation”.

For the origin of these results see patent publication US8329186B2, “Treatment of inflammation using BST2 inhibitor” (Isu Abxis Co., Ltd, priority 2004, dated 2012).
